# Experimental data from the nanobody polyreactivity screen of Harvey et al. (2022).
# Experiment: yeast display, Sf9 membrane polyspecificity reagent, FACS + sequencing; frameworks hold sequencing errors
# Method in brief: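 Genes from sorted yeast were amplified by colony PCR, read by MiSeq 2 × 250 sequencing and filtered on CDR length. These cells carried a synthetic nanobody library in Saccharomyces cerevisiae BJ5465 and were sorted by FACS into low and high (top ~1%) gates on anti-HA and streptavidin fluorescence. Polyreactivity is labelled according to the gate of origin.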
row,Sequence,polyreactivity (PSR sort gate)
1,QVQLVESRGGLVQAGGSLRLSCAASGFIFYWNAMGWYRQAPGKEREFVATITWSGGSTYYADSVKGRFTISRDNAKNTVYLQMNSLKPEDTAVYYCNADVTWEDDYCGQGTQVTVSS,low polyreactivity
2,QVQLVESGGGLVQAGGSLRLSCAASGLIFYPYAMGWYRQAPGKERELVAGISSSGDSTYYADSVKGRFTISRDNAKNTVYLQMNSLKPEDNAVYYCNTGWDPYGYDYWGQGTQVTVSS,low polyreactivity
3,QVQLVESGGGLVQAGGSLRLSCAASGSIFEINAKGWYRQAPGKERELVADIRRGDSTNYADSVKGRFTISRDNAKNTVYLQMNSLKPEDTAVYYCAAYHRLFDYDYWGQGTQVTVSS,high polyreactivity
4,QVQLVESGGGLVQAGGSLRLSCAASGFIFAYYAMGWYRQAPGKERELVAAISSSGGSTYYADSVKGRFTISRDNAKNTVYLQMNSLKPEDTAVYFCNRRWVAPYFYSRYYSGQEEGYWGQGTQVTVSS,high polyreactivity
5,QVQLVESGGGLVQAGGSLRLSCAASGRIFRVYAMGWYRQAPGKERELVAAIRWTGGSTYYADSVKGRFKISRDNAKNTVYLQMNSLKPEDTAVYYCAAGRYYSDGSRTIYDYWGQGTQVTVSS,low polyreactivity
6,QGQLVESGGGLVQAGGSLRLSCAASGSTSGKNAMGWYRQAPGQERELVAVITYSGSRTYYADSVKGRFTISRDNAKNTVYLQMNSLKPEDTAVYYCATRGLKTYQAYDYWGQGTQVTVSS,high polyreactivity
7,QVQLVESGGGLVQAGGRLRLTCAASGINFRSYAMGWYRQATGKERELVAGISLSGGSTYYADSVKGRFTISRDNAKNSDYLQMNSLKPEDTAVYYCATRYHYFGALRYGYCGQGTQVTVSS,high polyreactivity
8,QVQLVESGGGLVQAGGSLRLSCAASGSIFPIYAMGWYRQAPGKERELVAAITRSDGSTYYADSVKGRFTISRDNAKNTVYLQMNSLNPEDTAVYYCGDYGYWGQGTQVTVSS,low polyreactivity
9,QVQLVESGGGLVQAGGSLRLSCAASGSTLSRYAMGWYRQAPGKERELVATITRRGGSTFYADSVKGRFTISRDNAKNTVYLQMNSLKPEDTAVYYCAVGRLFWGQGTQVTVSS,low polyreactivity
10,QVQLVESGGGLVQAGGSLRLSCAASGSIFSANVMGWYRQAPGTERELVAAIRRGGTTYYADSVKGRFTISRDNAKNTVYLQMNSLKPEDTAVYYCATDGIFGSYLRFEVAYDYWGQGTQVTVSS,low polyreactivity
11,QVQLVESGGGLVQAGGSLRLSCAASGSIFEPYAMGWYRTAPGKERELVAAISSGGSTNYADSVKGRFTISRDNAKNTVYLQMNSLKPEVTAVYYCAAAYYTVGWLYYDYWYPFAYYYWGQGTQVTVSS,low polyreactivity
12,QVQLVESGGGLVQAGGSLRLSCAASGFIFWQYTLGWYRQAPGKERELVAAINGGSSTYYADSVKGRFTISRDNAKNTVYVQKNSRKPEDTAVYYCAADRYLYHDRYEYDYWGQGTQVTVSS,high polyreactivity
13,QVQLVESGGGIVQAGGSLRLICAASGFTFSYYAMAWYRQAPGKEREFVAAITRSGSTYYADSVKGRFTISRENAKNTVYLQMISLKPEDTSVYYCAARFLYRYDYWGQGTQVTVSS,high polyreactivity
14,QVQLVESGGGLFQAGGSLRISCAASGGTFFRYAMGWYRQAPGKERELVAAITWSSGSTYYADSVKGRFTISRDNAKNTGYLQMNSLKPEDTAVYYYDYYTYGDYWGQGTEVTVSS,low polyreactivity
15,QVQLVESGGGLVQAGGSLRLSCAASGRIFSQYAMGWYRQAPGKARELVAAITKSGGSTYYADSVKGRFTISRDKAKNTVYLQMNSRKPEETAVYYCAKLRSSRDYDYWGQGTQVTVSS,high polyreactivity
16,QVQLVESGGGLVQAGGSLRLSCAASGSTFPGNARGWSRQAPGKLRELVAAIRWSGGRTYYADSVKGRFTISRDNAKNTVYLQMNSLNPEDTAVSYCNAVSDRPIPWYYYWGQGTQVTASS,low polyreactivity
17,QVQLVESGGGLVQAGGSLRLSCAASGSTFSDYAMGWYRQAPGKERELVAAISDSGSGTYYADSVKGRFTISRDNAKNTVYLQMNSLKPEDTAVYYCNTDPRFAMDWGQGTQVTVSS,low polyreactivity
